Results published in patent US20160340659A1, “ACTIN BINDING PEPTIDES AND COMPOSITIONS COMPRISING SAME FOR INHIBITING ANGIOGENESIS AND TREATING MEDICAL CONDITIONS ASSOCIATED WITH SAME” (YISSUM RESEARCH AND DEVELOPMENT COMPANY OF THE HEBREW …, priority 2014, published 2016).
Entries after “also recorded” stand apart in the source; their conditions may differ.

Assays:
HUVEC = HUVEC tube formation assay on Matrigel; type: cell-based, human; conditions: peptides at 2 μM, compared to Control
Method: FIGS. 6A-6D illustrate in-vitro inhibition of angiogenesis in the HUVEC model by T2 peptides. HUVEC cells plated on Matrigel™ were exposed to 2 μM of T2 peptides A103-Q159 (SEQ ID NO: 60), K108-K133 (SEQ ID NO: 57) or K108-L123 (SEQ ID NO: 67), in addition to 1 μg/ml of angiogenin or VEGF as the angiogenic agent, as indicated. Control wells received PBS. FIG. 6B-Results were assessed by imaging software, and quantified, and expressed relative to tube formation with angiogenin or VEGF alone (100%) Column 1=angiogenin, column 2=angiogenin+SEQ ID NO: 60, column 3=angiogenin+SEQ ID NO: 57, column 4=angiogenin+SEQ ID NO: 60, Column 5=VEGF, column 6=VEGF+SEQ ID NO: 60, column 7=VEGF+SEQ ID NO: 57, column 8=VEGF+SEQ ID NO: 60. FIGS. 6C and 6D illustrate the inhibitory effect of truncated human T2 polypeptide trT2-49m (SEQ ID NO: 129) on angiogenin and VEGF induced HUVEC tube formation. […]
HUVEC (CC-2519)(fresh or commercially provided) are maintained in M199 rrrediurn supplemented with 20% FCS, 1% glutamine, 1% antibiotic-antimycotic solution, ECGF, and heparin, plated in a 96-well plate (14×10^3 cells/well) previously coated with growth factor-depleted Matrigel™ (BD Biosciences), in M199 medium containing 5% FCS and 0.005% ECGF. […] Plates are incubated (overnight), photographed and the extent of tube formation (angiogenesis) assessed.

actin [1] = biological target: T1, actin (Oryctolagus cuniculus, UniProt P68135); experiment: Surface plasmon resonance (BIAcore) of actin binding; conditions: actin on CM5 chip, 25° C.
Method: SPR was performed on a BIAcore 3000 instrument (BIAcore, Uppsala, Sweden). Actin was diluted in 100 mM CH3COONa pH 4.6 to a final concentration of 20 μg/ml (200 μl total) resulting in ˜1 ng immobilized actin on a CM5 BIAcore sensor chip (GE Healthcare Bio-Sciences AB) using the standard BIAcore amine coupling chemistry protocol. The CM5 chip allows four separate flow cells to be operated in the BIAcore 3000 instrument used in these experiments. Coupling is achieved by activating the surface of the sensor chips with equal volumes of 50 mM N-hydroxysuccimide (NHS)/200 mM Nethyl-N-(3-[…])-carboiimide (EDC) (BIAcore, AB, Uppsala, Sweden) to form activated carboxyl groups. An actin solution (15 μg/ml) was run over the chip for 5 min at a rate of 10 μl/min, allowing the amine groups on the protein to react with the activated esters. In the final stage of immobilization, the surface was blocked by 1M ethanol amine, pH 8.0. […] The association phase for protein or peptides binding to actin was followed for 4 min, and dissociation phases were monitored for 3 min. […] The response was monitored as a function of time (sensorgram) at 25° C. […]

actin [2] = biological target: T1, actin; experiment: Actin binding solid phase assay; conditions: immobilized actin; 0-500 ng/100 μl well
Method: 96-well plates (MaxiSorp® flat-bottom 96-well plate, Fisher Scientific Inc., Fair Lawn, N.J.) were coated with 500 ng actin in 100 μl carbonate-bicarbonate buffer (pH 9.5) for 1 h at 37° C. The plate was washed once with TBS and then blocked with 3% BSA in 200 μl TBS buffer at 37° C., for 1 h. Wells were then washed once with 250 μl TBS. trT2-49, trT2-49m or each of the 29 peptides were added at 1:2 dilutions in 100 μl TBS, starting from 500 ng/well, incubated for 1 h at 37° C. and then washed three times with TBS containing 0.1% Tween-20 (TBST). Each well was then treated with 100 μl rabbit anti-trT2-49 diluted 1:500 in TBS and incubated for 1 h at 37° C. The wells were washed three times with TBST and then incubated with 100 μl goat anti-rabbit IgG-HRP (Jackson ImmunoResearch, West Grove, Pa.) diluted 1:10,000 in TBS, for 1 h at 37° C. Wells were then washed twice with TBST, and once with TBS before 100 μl substrate (1-step Ultra TMB-ELISA, Pierce, Fisher Scientific Inc.) were added. Absorbance at 655 nm was measured 10 min thereafter using a Power Wave 200 Microplate Scanning Spectrophotometer (Bio-Tek Instrument, Winooski, Vt.). Affinity was evaluated by double reciprocal plotting.

[3] = biological target: T2, G-Actin from rabbit muscle (Oryctolagus cuniculus, UniProt P68135); experiment: ELISA actin binding assay (solid-phase, immobilized actin); conditions: immobilized G-actin 500 ng/well
T2 construct: G-Actin from rabbit muscle; purchased Sigma-Aldrich, St Louis, Mo; host or cells: rabbit muscle (tissue-derived)
Method: Peptides corresponding to a variety of amino acid sequences in the region of human RNASET2 comprising helix 5 and helix 6 were synthesized and assayed for actin binding in an ELISA actin binding assay.
Solid-phase ELISA for RNASET2 peptide binding to immobilized actin was performed as modified from Mejean 1987 (Biochem. J. 244: 571-577) and Mejean 1992 (Eur. J Biochem. 209: 555-562). All steps were conducted at 37° C. Immuno-96 Microwell™ solid plates (Thermo Fisher Scientific, MA) coated with 500 ng/well of G-Actin from rabbit muscle (Sigma-Aldrich, St Louis, Mo.) in 100 ul of 0.05 M carbonate buffer, pH 9.5 (Sigma-Aldrich, Mo), incubated for 1 h and washed with 250 ul/well Tris Buffered Saline (TBS) (Sigma-Aldrich). The wells were blocked with 3% bovine serum albumin (BSA, Sigma-Aldrich) in 200 ul/well TBS for another 1 hour and washed with 250 ul/well TBS. […] After an additional wash with 250 ul/well TBS, 1-Step Ultra TMB-ELISA (TMB-3,3′,5,5′ Tetramethylbenzidine) (Thermo-Scientific) was added (100 ul/well) and after 15-25 min of incubation, the reaction was read at A650 using Infinite F50-TECAN ELISA READER (TECAN, Austria). […]

[4] = test system: chick Chorio-Allantoic Membrane (CAM); experiment: Ex ovo CAM angiogenesis assay; type: in vivo, chicken; conditions: 3 μg on paper disk daily for four days from day 8; compared to PBS control
Method: In this assay, in-vivo angiogenesis is assessed on live chick embryos grown in petri dishes. Fertilized eggs are cracked into a petri dish after a few (e.g. 3) days incubation at appropriate temperature (e.g. 37° C.) and humidity. In the following days, the embryos developed a vascular network, which can then easily be exposed to any treatment or combination of treatments, for example, via delivery onto absorbent disks placed on/about the developing vascular regions. Angiogenesis is scored by periodically (e.g. 1×/day, 2×/day, 1×/2 days, 1×/4 days, etc) counting the number of blood vessels around the disk.
Fertilized chicken eggs were incubated horizontally at 37° C. and humidity of 60-62% and cracked into Petri dishes at embryonic day 4. Incubation was continued under the same conditions. […] Treatment was given every day for four days, then, the number of blood vessels around the treated disks was counted.

| Ka × 10^3 (actin [1]) | actin binding on ELISA [3] | Molecule | inhibition of VEGF-induced tube formation (HUVEC; 1 μg/ml VEGF) [%] | inhibition of angiogenin-induced tube formation (HUVEC; 1 μg/ml angiogenin) [%] | actin binding in solid-phase assay (actin [2]) | inhibition of angiogenesis (number of blood vessels around disk) [4] |
| --- | --- | --- | --- | --- | --- | --- |
| 0.50 ×10^3 1/Ms | – | SEQ ID NO: 129: truncated version of hRNASET2 (trT2-49) missing amino acids E120-V141, expressed in E. coli (protein) EGCNRSWPFNLEEIKDLLPEMRAYWPDVIHSFPNRSRFWKHEWEKHGTCAAQVDALNSQKKYFGRSLELYRADFKDALARVYGVIPKIQCLPPSQDEEVQTIGQIELCLTKQDQQLQNCTEPGEQPSPKQEVWLANGAAESRGLRVCEDGPVFYPPPKKTKH | 35 | 40 | bound actin in a concentration-dependent manner; also recorded: effective and concentration-dependent binding of actin | – |
| 1.71 ×10^3 1/Ms | effectively binds actin | SEQ ID NO: 84: truncated RNASET2 polypeptide representing amino acids 49-232 of full length, native RNASET2 (protein) EGCNRSWPFNLEEIKDLLPEMRAYWPDVIHSFPNRSRFWKHEWEKHGTCAAQVDALNSQKKYFGRSLELYRELDLNSVLLKLGIKPSINYYQVADFKDALARVYGVIPKIQCLPPSQDEEVQTIGQIELCLTKQDQQLQNCTEPGEQPSPKQEVWLANGAAESRGLRVCEDGPVFYPPPKKTKH | – | – | effective and concentration-dependent binding of actin | effective in inhibiting angiogenesis |
